In patent US11015206B2, “Compositions and methods comprising sequences having hydroxyphenylpyruvate dioxygenase (HPPD) activity” (PIONEER HI-BRED INTERNATIONAL, INC., priority 2014, dated 2021):

Columns and labels:
Type in all cases: biochemical, Z. mays
[1] = tested on: 4-hydroxyphenylpyruvate dioxygenase (HPPD); experiment: HPPD activity coupled assay with HGD; substrate saturation kinetic parameters (kcat, KM); details: Table 6; for kcat: single substitutions in SEQ ID NO:2
Method in brief: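 Coupled continuous assay: His-tagged HPPD (5 to 240 nM, E. coli-expressed, Ni-NTA-purified) with 50 nM P. aeruginosa HGD in 25 mM Hepes pH 7, 2 mM ascorbate, 10 μM FeSO4; maleylacetoacetate followed at 320 nm. KM and Vmax from Lineweaver-Burke fits over 3.33–100 μM HPP.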

[2] = tested on: 4-hydroxyphenylpyruvate dioxygenase (HPPD); experiment: ON rate ratio: HPPD reaction rate with vs without inhibitor in the 70 to 90 second interval; details: Table 5; tembotrione
Method in brief: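 Indicator of inhibitor on-rate: reaction velocity in the 70 to 90 second window with 4 μM inhibitor divided by that without. Reactions contained 100 μM HPP and 60 or 120 nM HPPD; slower binding gives a larger ratio.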

[3] = tested on: 4-hydroxyphenylpyruvate dioxygenase (HPPD); experiment: Insensitivity parameter (ON × OFF) and trait fitness (ON × OFF × kcat/KM or × kcat); details: for ON × OFF × kcat, Value / ON × OFF × kcat, Fold vs wt / ON × OFF, fold vs wt / ON × OFF (parameters with tembotrione): Table 5, tembotrione; for ON × OFF × kcat, Fold vs wt / ON × OFF, fold vs wt: fold vs maize wild type HPPD; for ON × OFF (parameters with tembotrione): insensitivity parameter
Method in brief: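 Trait fitness combines catalysis and insensitivity as kcat/KM × ON rate ratio × OFF rate ratio. The insensitivity parameter is the product of ON and OFF rate ratios, used in place of KD because the ON rate ratio is inverse.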

[4] = tested on: 4-hydroxyphenylpyruvate dioxygenase (HPPD); experiment: OFF rate ratio: release of inhibitor from pre-formed enzyme-inhibitor complex; details: Table 5; tembotrione
Method in brief: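 Inhibitor release from pre-formed complex (enzyme 7.2 μM, inhibitor 8 μM, 1 h RT) tracked as accelerating HPPD activity at 320 nm over 12 min, coupled via 50 nM HGD with 100 μM HPP at pH 7. OFF rate ratio: steady-state velocity relative to uninhibited initial velocity.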

[5] = tested on: 4-hydroxyphenylpyruvate dioxygenase (HPPD); experiment: Estimate of kcat from initial rate at saturating hydroxyphenylpyruvate without inhibitor (ON rate ratio assay); details: Table 5; single substitutions in Round 7 variant 9070 (SEQ ID NO:2); estimate from initial rate at saturating hydroxyphenylpyruvate without inhibitor
Method in brief: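 kcat was estimated from the initial reaction rate with known enzyme level (60 or 120 nM HPPD). Hydroxyphenylpyruvate was at a saturating 100 μM, with no inhibitor present.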

[6] = DKN (diketonitrile form of isoxaflutole)
[7] = DKN (isoxaflutole diketonitrile)

Molecule | Km [1] [µM] | kcat [1] [s⁻¹] | ON ratio (parameters with tembotrione) [2] | Insensitivity parameter, ON × OFF [3, 6] | ON × OFF × kcat/km fold vs Round 7, variant 9070 [3, 7] | Insensitivity parameter, ON × OFF ([3]; Mesotrione, Table 6) | ON × OFF × kcat/km fold vs Round 7, variant 9070 ([3]; Sulco (sulcotrione)) | Insensitivity parameter, ON × OFF ([3]; Sulcotrione) | ON × OFF × kcat, Value [3] | ON × OFF × kcat, Fold vs wt [3] | ON × OFF, fold vs wt [3] | ON × OFF (parameters with tembotrione) [3] | Insensitivity parameter, ON × OFF ([3]; Tembotrione) | ON × OFF × kcat/km fold vs Round 7, variant 9070 ([3]; Topra (topramezone)) | Insensitivity parameter, ON × OFF ([3]; Topramezon) | ON × OFF × kcat/km fold vs Round 7, variant 9070 ([3]; meso (mesotrione)) | ON × OFF × kcat/km fold vs Round 7, variant 9070 ([3]; tembo (tembotrione)) | OFF ratio (parameters with tembotrione) [4] | kcat [5] [s⁻¹]
434R: single substitution Q434R in SEQ ID NO:2 (protein, Zea mays variant form created by artificial means.) MGPTPTATAAGAAVAAASAAEQAAFRLVGHRNFVRFNPRSDRFQTLAFHHVELWCADAASAAGRFSFALGVPLAARSDLSTGNSAHASLLLRSGSLSLLFTAPYAHGADAATAALPSFSAAAARRFAADHGLAVRAVALRVADAEDAFRASVAAGARPAFGPVDLGRGFRLAEVELYGDVVLRYVSYPDGAAGEPFLPGFEGVASPGAADYGLSRFDHIVGNVPELAPAAAYMAGFTGFHEFAEFTTEDVGTTESGLNSMALANNSENVLLPLNEPVHGTKRRSQIQTFLDHHGGPGVQHIALASDDVLRTLREMRARSAMGGFEFLPPPLSDYYDGVRRCAGDVLTEAQINECQELGVMVDRDDQGVLLQIFTKPVGDRPTFFLEIIQRIGCMEKDEKGQEYQKGGCGGFGKGNFGQLFKSIEDYEKSLEAKRAAAAATAQGS | 2.74 | 1.35 | 0.73 | 0.18 | 1.1 | 0.39 | 1.1 | 0.47 | 5.63 | 5.26 | 21.2 | 0.11 | 0.15 | 1.1 | 0.22 | 1.1 | 1.1 | 0.15 | 0.868
206S: single substitution P206S in SEQ ID NO:2 (protein, Zea mays variant form created by artificial means.) MGPTPTATAAGAAVAAASAAEQAAFRLVGHRNFVRFNPRSDRFQTLAFHHVELWCADAASAAGRFSFALGVPLAARSDLSTGNSAHASLLLRSGSLSLLFTAPYAHGADAATAALPSFSAAAARRFAADHGLAVRAVALRVADAEDAFRASVAAGARPAFGPVDLGRGFRLAEVELYGDVVLRYVSYPDGAAGEPFLPGFEGVASSGAADYGLSRFDHIVGNVPELAPAAAYMAGFTGFHEFAEFTTEDVGTTESGLNSMALANNSENVLLPLNEPVHGTKRRSQIQTFLDHHGGPGVQHIALASDDVLRTLREMRARSAMGGFEFLPPPLSDYYDGVRRCAGDVLTEAQINECQELGVMVDRDDQGVLLQIFTKPVGDRPTFFLEIIQRIGCMEKDEKGQEYQKGGCGGFGKGNFGQLFKSIEDYEKSLEAKQAAAAATAQGS | 3.36 | 1.13 | 0.75 | 0.29 | 1.1 | 0.46 | 0.8 | 0.53 | 5.15 | 4.82 | 28.5 | 0.15 | 0.20 | 1.0 | 0.29 | 0.9 | 1.1 | 0.20 | 0.592
